Source: publication PMC9697525, “A High-Quality CdSe/CdS/ZnS Quantum-Dot-Based FRET Aptasensor for the Simultaneous Detection of Two Different Alzheimer’s Disease Core Biomarkers”

Assays:
[1] = biological target: amyloid-beta monomer (AbM) (UniProt P05067 672-711); experiment: FRET fluorescence recovery (displacement from Au NRs@PDA); 20 nM AbM; no obvious recovery; QD-aptamer conjugates (in deionized water) with 0.5 mg/mL Au NRs@PDA stock (55 uL to 20 uL), 30 min quench, then 120 min with protein at room temperature; excitation 405 nm; buffer, salt and pH not stated; conditions: protein: commercial; label: QDs665 (CdSe/CdS/ZnS) via 5' thiol
Chain of amyloid-beta monomer (AbM) (P05067 672-711): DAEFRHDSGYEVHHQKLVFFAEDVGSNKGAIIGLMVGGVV

[2] = biological target: amyloid-beta oligomer (AbO), from Abeta(1-40) peptide (UniProt P05067 672-711); experiment: FRET fluorescence recovery (displacement from Au NRs@PDA); Au NRs@PDA quencher; LOD 50 pM (not a Kd); QD-aptamer conjugates (in deionized water) with 0.5 mg/mL Au NRs@PDA stock (55 uL to 20 uL), 30 min quench, then 120 min with protein at room temperature; excitation 405 nm; buffer, salt and pH not stated; conditions: protein: commercial; label: QDs625 (CdSe/CdS/ZnS) via 5' thiol
Chain of amyloid-beta oligomer (AbO), from Abeta(1-40) peptide (P05067 672-711): as above

GCGGAGCGTGGCAGG (ssDNA, 5'-HS-(CH2)6) [tau aptamer]: no binding [1].

GCCTGTGTTGGGGCGGGTGCG (ssDNA, 5'-HS-(CH2)6) [AbO aptamer]: binds [2].
